{"source": "paper PMC10398351", "about": "“Structural and molecular insight into antibody recognition of dynamic neoepitopes in membrane tethered MUC1 of pancreatic cancer cells and secreted exosomes” (RSC Chemical Biology, 2023)", "key": {"MUC1 TRD-Tn (3)": {"target": "MUC1 TRD-Tn (3)", "test": "SPR; Biacore 2000; MUC1 TRD models 2-4 immobilised on a CM5 chip by maleimide coupling through a C-terminal cysteine; SN-131 Fab injected; bivalent binding model"}, "MUC1-ST (4)": {"target": "MUC1-ST (4)", "test": "SPR; Biacore 2000; MUC1 TRD models 2-4 immobilised on a CM5 chip by maleimide coupling through a C-terminal cysteine; SN-131 Fab injected; bivalent binding model"}}}
{"binder": "SN-131 Fab (Fab, V domains shown) VH: QVQLQQSGAELARPGASVKLSCKASGYTFTNYGLSWVKQRTGQGLEWIGENHPGSGIIYHNEKFRGKATLTADKSSSTAYVQLSSLTSEDSAVYFCARSSGTRGFAYWGQGTLVTVSA VL: DVLMTQTPLSLPVSLGDQASISCRSSQSIVHSNGNTYLEWYLQKPGQSPKLLIYKVSNRFSGVPDRFSGSGSGTDFTLKISRVEAEDLGVYYCFQGSHGPWTFGGGTKLEIK", "values": [{"measurement": "Kd", "setting": "MUC1 TRD-Tn (3)", "result": 3.78, "unit": "nM"}, {"measurement": "Kd", "setting": "MUC1-ST (4)", "result": 1.58, "unit": "nM"}]}
